The term EC50 (read off the curve) denotes the midpoint of the concentration-response curve. Lower therefore signals higher potency in that assay.

The target of this test is full length gp41 HIV protein (Abcam) (human immunodeficiency virus-1 (HIV-1)). The experiment in a line: ELISA titration: plates coated with 1 µg/mL antigen, 2F5 in 4-fold dilutions; y axis without label (absorbance). (ELISA stands for enzyme-linked immunosorbent assay.)

“2F5, broadly neutralizing human monoclonal antibody (Polymun Scientific)” yielded an EC50 (read off the curve) of 0.1 µg/mL.

Source of the values: US20250369983A1.
